Experimental data as given in the supplement of paper PMC11136658.

System: peptide library, one residue held at a place counted from the Y acceptor
Experiment: relative phosphorylation of the sub-library (ratio to the mean residue at this position); higher = residue favoured
Outline: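 Every value reflects phosphorylation relative to the mean randomized residue. The sum of the 18 randomized residues, or 16 in the Ser/Thr-free library, served to normalize intensities at each position, which were then multiplied by that number. Intensities came from phosphorimaging with ImageQuant of biotinylated Tyr-centred peptides captured on streptavidin membranes after 90 min with purified recombinant kinases and 50 μM ATP plus γ-32P-ATP.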

Chain of BLK, construct: Full length, human (P51451 whole entry, looked up): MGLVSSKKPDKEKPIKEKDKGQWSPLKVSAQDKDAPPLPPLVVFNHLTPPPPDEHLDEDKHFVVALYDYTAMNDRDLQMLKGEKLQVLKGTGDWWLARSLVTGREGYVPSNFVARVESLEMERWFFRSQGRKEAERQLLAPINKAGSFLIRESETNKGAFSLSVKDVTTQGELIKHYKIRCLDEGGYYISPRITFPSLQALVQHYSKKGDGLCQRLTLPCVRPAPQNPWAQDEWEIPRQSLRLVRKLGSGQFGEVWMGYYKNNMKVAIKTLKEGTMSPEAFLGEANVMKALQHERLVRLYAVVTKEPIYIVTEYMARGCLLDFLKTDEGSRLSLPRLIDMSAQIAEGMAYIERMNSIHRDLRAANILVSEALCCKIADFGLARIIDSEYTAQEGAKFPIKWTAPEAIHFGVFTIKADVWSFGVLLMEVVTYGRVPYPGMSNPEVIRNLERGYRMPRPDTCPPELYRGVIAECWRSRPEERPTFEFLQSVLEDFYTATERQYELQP

Substance: BLK, construct: Full length, human (from UniProt P51451)
- relative phosphorylation (A fixed, at +1): 2.14
- relative phosphorylation (A fixed, at +2): 1.24
- relative phosphorylation (A fixed, at +3): 0.602
- relative phosphorylation (A fixed, at +4): 0.865
- relative phosphorylation (A fixed, at +5): 0.935
- relative phosphorylation (A fixed, at -1): 0.611
- relative phosphorylation (A fixed, at -2): 1.17
- relative phosphorylation (A fixed, at -3): 0.881
- relative phosphorylation (A fixed, at -4): 1.14
- relative phosphorylation (A fixed, at -5): 1.08
- relative phosphorylation (D fixed, at +1): 1.33
- relative phosphorylation (D fixed, at +2): 0.554
- relative phosphorylation (D fixed, at +3): 0.236
- relative phosphorylation (D fixed, at +4): 0.56
- relative phosphorylation (D fixed, at +5): 0.668
- relative phosphorylation (D fixed, at -1): 0.87
- relative phosphorylation (D fixed, at -2): 1.64
- relative phosphorylation (D fixed, at -3): 1.7
- relative phosphorylation (D fixed, at -4): 1.68
- relative phosphorylation (D fixed, at -5): 1.46
- relative phosphorylation (E fixed, at +1): 2
- relative phosphorylation (E fixed, at +2): 1.17
- relative phosphorylation (E fixed, at +3): 0.228
- relative phosphorylation (E fixed, at +4): 0.643
- relative phosphorylation (E fixed, at +5): 0.62
- relative phosphorylation (E fixed, at -1): 1.58
- relative phosphorylation (E fixed, at -2): 2.03
- relative phosphorylation (E fixed, at -3): 2.08
- relative phosphorylation (E fixed, at -4): 1.68
- relative phosphorylation (E fixed, at -5): 1.35
- relative phosphorylation (F fixed, at +1): 0.463
- relative phosphorylation (F fixed, at +2): 0.799
- relative phosphorylation (F fixed, at +3): 1.9
- relative phosphorylation (F fixed, at +4): 1.14
- relative phosphorylation (F fixed, at +5): 1.02
- relative phosphorylation (F fixed, at -1): 0.648
- relative phosphorylation (F fixed, at -2): 0.466
- relative phosphorylation (F fixed, at -3): 0.996
- relative phosphorylation (F fixed, at -4): 0.777
- relative phosphorylation (F fixed, at -5): 0.846
- relative phosphorylation (G fixed, at +1): 3.16
- relative phosphorylation (G fixed, at +2): 0.79
- relative phosphorylation (G fixed, at +3): 0.772
- relative phosphorylation (G fixed, at +4): 1.28
- relative phosphorylation (G fixed, at +5): 1.12
- relative phosphorylation (G fixed, at -1): 0.46
- relative phosphorylation (G fixed, at -2): 1.41
- relative phosphorylation (G fixed, at -3): 1.09
- relative phosphorylation (G fixed, at -4): 1.34
- relative phosphorylation (G fixed, at -5): 1.27
- relative phosphorylation (H fixed, at +1): 0.603
- relative phosphorylation (H fixed, at +2): 0.666
- relative phosphorylation (H fixed, at +3): 0.822
- relative phosphorylation (H fixed, at +4): 1.2
- relative phosphorylation (H fixed, at +5): 1.08
- relative phosphorylation (H fixed, at -1): 0.592
- relative phosphorylation (H fixed, at -2): 0.778
- relative phosphorylation (H fixed, at -3): 1.05
- relative phosphorylation (H fixed, at -4): 0.879
- relative phosphorylation (H fixed, at -5): 0.978
- relative phosphorylation (I fixed, at +1): 0.558
- relative phosphorylation (I fixed, at +2): 0.865
- relative phosphorylation (I fixed, at +3): 2.22
- relative phosphorylation (I fixed, at +4): 0.721
- relative phosphorylation (I fixed, at +5): 0.713
- relative phosphorylation (I fixed, at -1): 3.23
- relative phosphorylation (I fixed, at -2): 0.629
- relative phosphorylation (I fixed, at -3): 0.607
- relative phosphorylation (I fixed, at -4): 0.833
- relative phosphorylation (I fixed, at -5): 0.764
- relative phosphorylation (K fixed, at +1): 0.198
- relative phosphorylation (K fixed, at +2): 0.856
- relative phosphorylation (K fixed, at +3): 0.598
- relative phosphorylation (K fixed, at +4): 1.35
- relative phosphorylation (K fixed, at +5): 1.39
- relative phosphorylation (K fixed, at -1): 0.303
- relative phosphorylation (K fixed, at -2): 0.597
- relative phosphorylation (K fixed, at -3): 0.47
- relative phosphorylation (K fixed, at -4): 0.732
- relative phosphorylation (K fixed, at -5): 0.941
- relative phosphorylation (L fixed, at +1): 0.458
- relative phosphorylation (L fixed, at +2): 0.767
- relative phosphorylation (L fixed, at +3): 2.47
- relative phosphorylation (L fixed, at +4): 1.13
- relative phosphorylation (L fixed, at +5): 0.834
- relative phosphorylation (L fixed, at -1): 1.8
- relative phosphorylation (L fixed, at -2): 0.682
- relative phosphorylation (L fixed, at -3): 0.73
- relative phosphorylation (L fixed, at -4): 0.805
- relative phosphorylation (L fixed, at -5): 0.721
- relative phosphorylation (M fixed, at +1): 1.11
- relative phosphorylation (M fixed, at +2): 0.83
- relative phosphorylation (M fixed, at +3): 0.927
- relative phosphorylation (M fixed, at +4): 1.16
- relative phosphorylation (M fixed, at +5): 0.938
- relative phosphorylation (M fixed, at -1): 0.995
- relative phosphorylation (M fixed, at -2): 0.605
- relative phosphorylation (M fixed, at -3): 0.853
- relative phosphorylation (M fixed, at -4): 0.913
- relative phosphorylation (M fixed, at -5): 0.816
- relative phosphorylation (N fixed, at +1): 0.538
- relative phosphorylation (N fixed, at +2): 0.874
- relative phosphorylation (N fixed, at +3): 0.448
- relative phosphorylation (N fixed, at +4): 0.796
- relative phosphorylation (N fixed, at +5): 0.93
- relative phosphorylation (N fixed, at -1): 0.421
- relative phosphorylation (N fixed, at -2): 1.3
- relative phosphorylation (N fixed, at -3): 1.37
- relative phosphorylation (N fixed, at -4): 0.96
- relative phosphorylation (N fixed, at -5): 1.09
- relative phosphorylation (P fixed, at +1): 0.222
- relative phosphorylation (P fixed, at +2): 1.29
- relative phosphorylation (P fixed, at +3): 0.565
- relative phosphorylation (P fixed, at +4): 0.834
- relative phosphorylation (P fixed, at +5): 1.18
- relative phosphorylation (P fixed, at -1): 0.706
- relative phosphorylation (P fixed, at -2): 1.35
- relative phosphorylation (P fixed, at -3): 0.917
- relative phosphorylation (P fixed, at -4): 1.2
- relative phosphorylation (P fixed, at -5): 1.23
- relative phosphorylation (Q fixed, at +1): 1.16
- relative phosphorylation (Q fixed, at +2): 0.957
- relative phosphorylation (Q fixed, at +3): 0.414
- relative phosphorylation (Q fixed, at +4): 0.998
- relative phosphorylation (Q fixed, at +5): 0.87
- relative phosphorylation (Q fixed, at -1): 0.589
- relative phosphorylation (Q fixed, at -2): 1.15
- relative phosphorylation (Q fixed, at -3): 0.926
- relative phosphorylation (Q fixed, at -4): 1.09
- relative phosphorylation (Q fixed, at -5): 1.12
- relative phosphorylation (R fixed, at +1): 0.335
- relative phosphorylation (R fixed, at +2): 1.26
- relative phosphorylation (R fixed, at +3): 1.3
- relative phosphorylation (R fixed, at +4): 1.71
- relative phosphorylation (R fixed, at +5): 1.78
- relative phosphorylation (R fixed, at -1): 0.324
- relative phosphorylation (R fixed, at -2): 0.707
- relative phosphorylation (R fixed, at -3): 0.619
- relative phosphorylation (R fixed, at -4): 0.81
- relative phosphorylation (R fixed, at -5): 0.97
- relative phosphorylation (S fixed, at +1): 1.15
- relative phosphorylation (S fixed, at +2): 1.49
- relative phosphorylation (S fixed, at +3): 0.608
- relative phosphorylation (S fixed, at +4): 0.921
- relative phosphorylation (S fixed, at +5): 1.06
- relative phosphorylation (S fixed, at -1): 0.454
- relative phosphorylation (S fixed, at -2): 1.16
- relative phosphorylation (S fixed, at -3): 1.09
- relative phosphorylation (S fixed, at -4): 0.833
- relative phosphorylation (S fixed, at -5): 0.968
- relative phosphorylation (T fixed, at +1): 0.904
- relative phosphorylation (T fixed, at +2): 1.78
- relative phosphorylation (T fixed, at +3): 0.724
- relative phosphorylation (T fixed, at +4): 0.902
- relative phosphorylation (T fixed, at +5): 1.09
- relative phosphorylation (T fixed, at -1): 1.54
- relative phosphorylation (T fixed, at -2): 1.07
- relative phosphorylation (T fixed, at -3): 1.05
- relative phosphorylation (T fixed, at -4): 0.82
- relative phosphorylation (T fixed, at -5): 0.859
- relative phosphorylation (V fixed, at +1): 0.71
- relative phosphorylation (V fixed, at +2): 1.18
- relative phosphorylation (V fixed, at +3): 1.29
- relative phosphorylation (V fixed, at +4): 0.759
- relative phosphorylation (V fixed, at +5): 0.786
- relative phosphorylation (V fixed, at -1): 2.31
- relative phosphorylation (V fixed, at -2): 0.762
- relative phosphorylation (V fixed, at -3): 0.62
- relative phosphorylation (V fixed, at -4): 0.737
- relative phosphorylation (V fixed, at -5): 0.753
- relative phosphorylation (W fixed, at +1): 0.956
- relative phosphorylation (W fixed, at +2): 0.629
- relative phosphorylation (W fixed, at +3): 1.88
- relative phosphorylation (W fixed, at +4): 1.04
- relative phosphorylation (W fixed, at +5): 0.981
- relative phosphorylation (W fixed, at -1): 0.564
- relative phosphorylation (W fixed, at -2): 0.478
- relative phosphorylation (W fixed, at -3): 0.951
- relative phosphorylation (W fixed, at -4): 0.784
- relative phosphorylation (W fixed, at -5): 0.793
- relative phosphorylation (pThr fixed, at +1): 0.782
- relative phosphorylation (pThr fixed, at +2): 1.66
- relative phosphorylation (pThr fixed, at +3): 0.255
- relative phosphorylation (pThr fixed, at +4): 0.373
- relative phosphorylation (pThr fixed, at +5): 0.472
- relative phosphorylation (pThr fixed, at -1): 2.81
- relative phosphorylation (pThr fixed, at -2): 1.61
- relative phosphorylation (pThr fixed, at -3): 1.16
- relative phosphorylation (pThr fixed, at -4): 1.21
- relative phosphorylation (pThr fixed, at -5): 1.35
- relative phosphorylation (pTyr fixed, at +1): 1.22
- relative phosphorylation (pTyr fixed, at +2): 1.85
- relative phosphorylation (pTyr fixed, at +3): 0.494
- relative phosphorylation (pTyr fixed, at +4): 0.629
- relative phosphorylation (pTyr fixed, at +5): 0.643
- relative phosphorylation (pTyr fixed, at -1): 0.876
- relative phosphorylation (pTyr fixed, at -2): 1.17
- relative phosphorylation (pTyr fixed, at -3): 1.55
- relative phosphorylation (pTyr fixed, at -4): 1.41
- relative phosphorylation (pTyr fixed, at -5): 1.4
